Test results from patent US20230365714A1 (published 2023).

Molecular target: T1, human (Homo sapiens) ROR2, full length, on cells (human, UniProt Q01974 34-943)
T1 construct: also called human ROR2; CHO-ROR2
Assay: flow cytometry on ROR2-expressing tumor cell lines

T1 sequence (Q01974 34-943 limits assumed): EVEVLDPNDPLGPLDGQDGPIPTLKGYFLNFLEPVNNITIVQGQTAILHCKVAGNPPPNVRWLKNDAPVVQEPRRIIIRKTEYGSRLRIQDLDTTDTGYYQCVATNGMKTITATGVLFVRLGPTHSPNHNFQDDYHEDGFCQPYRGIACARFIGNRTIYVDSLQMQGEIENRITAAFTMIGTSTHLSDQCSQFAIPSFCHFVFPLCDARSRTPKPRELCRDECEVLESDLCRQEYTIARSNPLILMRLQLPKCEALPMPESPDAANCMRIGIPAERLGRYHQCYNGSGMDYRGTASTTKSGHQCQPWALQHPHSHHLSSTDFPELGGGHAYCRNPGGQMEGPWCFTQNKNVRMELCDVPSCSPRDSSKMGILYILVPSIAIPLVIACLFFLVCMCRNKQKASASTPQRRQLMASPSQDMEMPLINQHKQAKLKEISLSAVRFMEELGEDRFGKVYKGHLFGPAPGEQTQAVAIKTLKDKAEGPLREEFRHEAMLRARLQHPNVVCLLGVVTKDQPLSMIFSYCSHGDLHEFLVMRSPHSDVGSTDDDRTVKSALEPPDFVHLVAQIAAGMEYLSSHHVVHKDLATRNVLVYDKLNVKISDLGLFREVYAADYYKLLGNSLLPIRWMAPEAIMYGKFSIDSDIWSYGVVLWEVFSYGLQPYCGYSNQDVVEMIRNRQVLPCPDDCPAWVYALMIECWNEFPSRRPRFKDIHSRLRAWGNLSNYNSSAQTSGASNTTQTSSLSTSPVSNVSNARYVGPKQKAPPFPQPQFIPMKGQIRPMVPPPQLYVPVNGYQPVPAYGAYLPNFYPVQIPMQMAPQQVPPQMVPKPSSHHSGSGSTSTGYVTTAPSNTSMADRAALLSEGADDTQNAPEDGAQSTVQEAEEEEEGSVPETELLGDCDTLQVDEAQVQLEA

B1: bsIgG1-huCD3-H101G-FEAL×b12-FEAR (bispecific antibody)
heavy 1: not shown
light: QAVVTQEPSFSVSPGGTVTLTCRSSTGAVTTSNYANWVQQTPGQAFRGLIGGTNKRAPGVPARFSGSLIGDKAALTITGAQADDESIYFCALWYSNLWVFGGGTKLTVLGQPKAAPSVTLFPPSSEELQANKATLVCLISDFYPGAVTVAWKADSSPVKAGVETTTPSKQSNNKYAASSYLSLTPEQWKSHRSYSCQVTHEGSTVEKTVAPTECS
heavy 2: QVQLVQSGAEVKKPGASVKVSCQASGYRFSNFVIHWVRQAPGQRFEWMGWINPYNGNKEFSAKFQDRVTFTADTSANTAYMELRSLRSADTAVYYCARVGPYSWDDSPQDNYYMDVWGKGTTVIVSSASTKGPSVFPLAPSSKSTSGGTAALGCLVKDYFPEPVTVSWNSGALTSGVHTFPAVLQSSGLYSLSSVVTVPSSSLGTQTYICNVNHKPSNTKVDKRVEPKSCDKTHTCPPCPAPEFEGGPSVFLFPPKPKDTLMISRTPEVTCVVVAVSHEDPEVKFNWYVDGVEVHNAKTKPREEQYNSTYRVVSVLTVLHQDWLNGKEYKCKVSNKALPAPIEKTISKAKGQPREPQVYTLPPSREEMTKNQVSLTCLVKGFYPSDIAVEWESNGQPENNYKTTPPVLDSDGSFFLYSRLTVDKSRWQQGNVFSCSVMHEALHNHYTQKSLSLSPGK
VL: EIVLTQSPGTLSLSPGERATFSCRSSHSIRSRRVAWYQHKPGQAPRLVIHGVSNRASGISDRFSGSGSGTDFTLTITRVEPEDFALYYCQVYGASSYTFGQGTKLERK
notes: Control bispecific; also called bsIgG1-huCD3-H1010G-FEAL×b12-FEAR
- binding result: no binding (tested: 0.014-30 µg/mL)
